Data from patent US11452709B2, “Compositions and methods for preventing and treating radiation-induced bystander effects caused by radiation or radiotherapy” (The Regents of the University of Colorado, priority 2017, dated 2022).

Columns and labels:
Assay type in all cases: in vivo, C. elegans
N2 animals = experiment: Embryonic lethality assay in liquid media with purified proteins; conditions: 2.8 μM tCPR-4 proteins or 0.27 μM rhCTSB, 48 hours
Method: Embryonic lethality and larval arrest assays. For embryonic lethality assays caused by direct irradiation, after irradiated with 100 J/m^2 UV or 500 Gy gamma ray, gravid adults were placed on NGM plates to lay eggs for 4 hours at 25° C. and then removed from the plates. For embryonic lethality assays in liquid media, L4 larvae were cultured in conditioned medium or S-Medium containing the purified proteins at 20° C. for 48 hours, transferred to fresh NGM plates from the liquid media, and allowed to lay eggs for 4 hours at 25° C., before the adult animals were removed. For embryonic lethality assays in transgenic animals expressing CPR-4 in the pharynx, transgenic gravid adults at 24 hours post L4 were placed on NGM plates to lay eggs for 4 hours at 25° C. and then removed from the plates.

[1] = system: germ cell corpses in ced-1(e1735) animals; experiment: Germ cell corpse assay with recombinant proteins in liquid culture
Method: Growing C. elegans animals in 96-well plates. HB101 bacteria were mixed with 100 μL conditioned medium (0.1 μg/μL) or 100 μL S-Medium containing 2.8 μM of recombinant tCPR-4 proteins (wild-type or mutant) or 0.27 μM recombinant human cathepsin B in a 96-well plate. Approximately 60 L4 larvae were transferred into each well of the plate. After being cultured in liquid media for 48 hours, these animals were scored for the numbers of germ cell corpses and mitotic nuclei. Quantification of germ cell corpses. L4 animals were cultured in liquid media in a 96-well plate as described above. After 48 hours, they were transferred to NGM plates and allowed to recover for 1 hour at 20° C. The animals were then anesthetized by 20 mM NaN3, mounted onto 2% agar pad, and scored under Nomarski optics. For transgenic animals expressing CPR-4 in the pharynx, L4 animals were grown on NGM plates for 24 hours at 20° C. before they were scored for germ cell corpses. Only the posterior arms of intact gonads were scored. Blind tests were carried out in all germ cell corpse quantification experiments.

[2] = system: germline mitotic zone nuclei; experiment: Germ cell proliferation assay (mitotic nuclei); conditions: 2.8 μM tCPR-4, 48 hours
Method: Growing C. elegans animals in 96-well plates. HB101 bacteria were mixed with 100 μL conditioned medium (0.1 μg/μL) or 100 μL S-Medium containing 2.8 μM of recombinant tCPR-4 proteins (wild-type or mutant) or 0.27 μM recombinant human cathepsin B in a 96-well plate. Approximately 60 L4 larvae were transferred into each well of the plate. After being cultured in liquid media for 48 hours, these animals were scored for the numbers of germ cell corpses and mitotic nuclei. Quantification of mitotic nuclei. L4 animals treated with 2.8 μM of purified tCPR-4 proteins in liquid culture for 48 hours were transferred to NGM plates and allowed to recover for 1 hour at 20° C. They were then dissected to expose their gonads following the protocol described previously. Dissected gonads were fixed and stained with DAPI. The number of germ nuclei and the number of metaphase nuclei in the mitotic zone of each gonad were scored using a Zeiss Nomarski microscope with a DAPI filter.

B1: tCPR-4: recombinant truncated CPR-4 lacking its signal peptide (residues 1-15) (protein, UniProt P43508 81-335, looked up)
Cathepsin B-like cysteine …: IPATFDARTQWPNCMSINNIRDQSDCGSCWAFAAAEAASDRFCIASNGAVNTLLSAEDVLSCCSNCGYGCEGGYPINAWKYLVKSGFCTGGSYEAQFGCKPYSLAPCGETVGNVTWPSCPDDGYDTPACVNKCTNKNYNVAYTADKHFGSTAYAVGKKVSQIQAEIIAHGPVEAAFTVYEDFYQYKTGVYVHTTGQELGGHAIRILGWGTDNGTPYWLVANSWNVNWGENGYFRIIRGTNECGIEHAVVGGVPKV
Embryonic lethality of treated N2 animals (N2 animals): increased embryonic lethality | Germ cell death in ced-1(e1735); daf2(e1370) mutant ([1]; 2.8 μM tCPR-4, 48 hours): did not further reduce germ cell death | Germ cell death in ced-1(e1735); pdk-1(sa680) animals ([1]; 2.8 μM tCPR-4, 48 hours): did not reduce germ cell death | Germ cell corpses in ced-1(e1735) animals ([1]; 2.8 μM tCPR-4 proteins or 0.27 μM rhCTSB, L4 larvae, 48 hours): reduced germ cell corpses | Germ cell nuclei and metaphase nuclei in the mitotic zone of N2 animals [2]: more germ cell nuclei and more metaphase nuclei in the mitotic zone
